Experiment [1] has as its target T1, extracellular domain (ECD) of human IGSF11 (VSIG3), recombinant (human, UniProt Q5DX21 23-241).
T1 construct: biotinylated where captured on streptavidin; tags of the reagent not always stated; also called IGSF11 (ECD domain); ECD-IGSF11
T1 sequence: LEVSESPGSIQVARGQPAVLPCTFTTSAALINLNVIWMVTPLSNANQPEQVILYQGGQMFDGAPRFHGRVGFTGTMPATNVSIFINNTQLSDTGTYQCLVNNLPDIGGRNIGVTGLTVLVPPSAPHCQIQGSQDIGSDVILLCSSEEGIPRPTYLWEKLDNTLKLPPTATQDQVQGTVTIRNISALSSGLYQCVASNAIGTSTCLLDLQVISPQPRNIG
Briefly: BLI.

Experiment [2] deals with T1, extracellular domain (ECD) of human …. Briefly: SPR. On the technique in general: In SPR one partner is held on a chip, and binding of the other changes the refractive index at the surface.
Experiment [3] addresses T2, full-length ECD of human IGSF11 fused to murine Fc (human, UniProt Q5DX21 23-241).
T2 construct: also called Fc-fusion IGSF11 ECD; not shown: murine Fc
T2 sequence: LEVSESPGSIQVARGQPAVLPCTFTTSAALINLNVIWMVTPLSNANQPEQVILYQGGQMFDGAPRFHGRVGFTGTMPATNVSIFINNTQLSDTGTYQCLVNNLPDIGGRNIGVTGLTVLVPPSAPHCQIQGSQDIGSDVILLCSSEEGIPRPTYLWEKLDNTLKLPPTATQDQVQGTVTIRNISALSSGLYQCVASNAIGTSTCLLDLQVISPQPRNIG
Description: IgG ELISA.

Experiment [4] concerns the target T3, IgC2 domain of human IGSF11 fused to murine IgG2a Fc (human, UniProt Q5DX21 137-241).
T3 construct: not shown: murine IgG2a Fc-region
T3 sequence: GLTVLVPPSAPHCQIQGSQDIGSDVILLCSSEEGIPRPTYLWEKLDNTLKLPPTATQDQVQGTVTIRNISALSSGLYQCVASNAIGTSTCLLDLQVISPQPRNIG
Description: IgG ELISA. Background: An ELISA detects its analyte on a solid surface through an enzyme-linked reagent.

Experiment [5] addresses T4, human IGSF11 (VSIG3) expressed on cells (human, UniProt Q5DX21 23-431).
T4 sequence: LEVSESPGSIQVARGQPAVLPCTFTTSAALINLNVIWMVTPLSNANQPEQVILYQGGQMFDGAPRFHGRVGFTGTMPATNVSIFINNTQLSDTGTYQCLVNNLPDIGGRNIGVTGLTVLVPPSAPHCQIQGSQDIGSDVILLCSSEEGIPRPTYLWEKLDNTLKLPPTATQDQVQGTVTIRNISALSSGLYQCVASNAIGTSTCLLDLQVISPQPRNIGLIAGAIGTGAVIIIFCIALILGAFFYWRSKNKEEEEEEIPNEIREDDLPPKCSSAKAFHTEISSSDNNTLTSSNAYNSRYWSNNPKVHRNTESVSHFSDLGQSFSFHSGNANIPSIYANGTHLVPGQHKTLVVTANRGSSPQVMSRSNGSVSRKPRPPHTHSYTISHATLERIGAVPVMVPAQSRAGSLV
Description: IgG1 FACS HEK-OE.

The target of experiment [6] is T5, human IGSF11 (VSIG3) ECD, His-tagged (human, UniProt Q5DX21 23-241).
T5 construct: in part bought (SinoBiological 13094-H08H); also called HIS-IGSF11; IGSF11-HIS; not shown: His tag
T5 sequence: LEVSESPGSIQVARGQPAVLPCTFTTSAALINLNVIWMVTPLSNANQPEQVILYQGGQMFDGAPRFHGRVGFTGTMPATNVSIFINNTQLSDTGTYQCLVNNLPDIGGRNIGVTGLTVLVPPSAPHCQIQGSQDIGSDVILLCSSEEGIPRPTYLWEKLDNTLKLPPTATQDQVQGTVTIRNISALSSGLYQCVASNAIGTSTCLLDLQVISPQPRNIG
Briefly: IgG1 ELISA EC50 <0.02 nM.

For experiment [7], the target named is T4, human IGSF11 (VSIG3) expressed on cells. Briefly: FACS, DMS 273 cells with scrambled control siRNA (SC). For orientation: A flow cytometer gives signals particle by particle.
The target is the same in experiment [8]. Briefly: FACS, M579-A2-luc cells with scrambled control siRNA (SC).
For experiment [9] the target is unchanged. Description: FACS, DMS 273 cells with IGSF11 siRNA (KD, knock-down control).
Experiment [10] shares this target. Briefly: FACS, M579-A2-luc cells with IGSF11 siRNA (KD, knock-down control).
In experiment [11] the target is T6, IgV domain of human IGSF11 fused to murine IgG2a Fc (human, UniProt Q5DX21 23-143).
T6 construct: not shown: murine IgG2a Fc-region
T6 sequence: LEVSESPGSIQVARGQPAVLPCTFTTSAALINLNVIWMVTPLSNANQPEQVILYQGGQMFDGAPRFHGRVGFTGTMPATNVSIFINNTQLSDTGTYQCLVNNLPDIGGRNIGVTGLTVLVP
Description: IgG ELISA.

Experiment [12] deals with T1, extracellular domain (ECD) of human …. Description: SPR. The source holds these as a separate data set.
Experiment [13] concerns the target T4, human IGSF11 (VSIG3) expressed on cells. Description: IgG1 FACS DMS 273.
Experiment [14] has as its target T5, human IGSF11 (VSIG3) ECD, His-tagged. Description: ELISA: IGSF11-HIS coated, IgG1 dilution series, anti-human antibody-HRP, TMB.
For experiment [15] the target is unchanged. Briefly: blocking ELISA: VSIR-Fc immobilised, IgG dilution series pre-incubated with 200 nM IGSF11 ECD-His, bound IGSF11 detected with anti-His-HRP.
For experiment [16] the target is unchanged. Briefly: IgG1 ELISA EC50 0.02-0.05 nM.
Experiment [17] has the same target. Briefly: ELISA: IGSF11-HIS coated, IgG1 dilution series, anti-human antibody-HRP, TMB. This is another data set of the same source.
The target is the same in experiment [18]. Description: blocking ELISA: VSIR-Fc immobilised, IgG dilution series pre-incubated with 200 nM IGSF11 ECD-His, bound IGSF11 detected with anti-His-HRP. The source holds these as a separate data set.

Where two headings read alike, the source gives them in different places.

B1: A-011 (IgG1 format) (antibody, V domains shown)
VH: QVQLVESGGGVVQPGRSLRLSCAASGFTFSSYAMHWVRQAPGKGLEWVAVISYDGSNKYYADSVKGRFTISRDNSKNTLYLQMNSLRAEDTAVYYCAEGGALNYYGMDVWGQGTTVTVSS
VL: SSELTQDPGVSVALGQTVRITCQGDSLRHFYATWYQQKPGQAPILVIYGKNNRPSGIPDRFSGSSSEDTASLTITGAQAEDEADYYCQSRDPRNNHLIFGGGTKLIVL
notes: human IgG1 format
Regarding B1, the dissociation constant Kd – broadly, the constant that tells how readily two partners part at equilibrium – in [1] lay in the range of 10 to 20 nM; in experiment [2], 250 to 500 nM. The EC50 – broadly, the midpoint of the concentration-response curve – in experiment [3] is below 1 nM; in experiment [4], below 1 nM; in experiment [5] it was above 50 nM; in experiment [6], below 0.02 nM. In addition, the “% binding (FACS heat-map)” value in [7] turned out to be 6.95%; in experiment [8], 2.05%; in experiment [9], 3.4%; in experiment [10] it was 2.41%.

B2: A-010 (IgG1 format) (antibody, V domains shown)
VH: QVQLVQSGAEVKKPGASVKVSCKASGYTFTSYGISWVRQAPGQGLEWMGWISAYNGNTNYAQKLQGRVTMTTDTSTSTAYMELRSLRSDDTAVYYCARVPAWSGQFDYWGQGTLVTVSS
VL: QSALTQPASVSGSPGQSITISCTGSSSDVGGYNYVSWYQQYPGKAPKLMIYDVRSRPSGVSNRFSGSKSGNTASLTISGLQAEDEADYYCTSYTSSNTLVIFGGGTKVTVL
notes: human IgG1 format
As to B2, the EC50 in experiment [3] is below 1 nM; in [11] it was below 1 nM; in experiment [6], below 0.02 nM.

B3: A-004 (IgG1 format) (antibody, V domains shown)
VH: EVQLVESGGGLVKPGGSLRLSCAASGFTFSSYSMNWVRQAPGKGLEWVSSISSSSSYIYYADSVKGRFTISRDNAKNSLYLQMNSLRAEDTAVYYCARGQLLWFGESALIDAFDIWGQGTMVTVSS
VL: EIVLTQSPSSLSASVGDRVTITCRASQSISSYLNWYQLKPGKAPKLLIYAASILQSGVPSRFSGSGSGTDFTLTISSLQPEDFAAYYCQQSYSTPRTFGQGTKLEIK
notes: human IgG1 format
On to B3, for which the Kd in experiment [2] was 100 to 250 nM. For the same molecule, the results for the concentration giving a half-maximal response (EC50) in [3], in experiment [11] and in experiment [6] were 1 to 20 nM, 1 to 20 nM and below 0.02 nM, respectively.

B4: B-002 (chain-swapped IgG1) (antibody, V domains shown)
VH: EVQLVESGGGLIQPGGSLRLSCAASGFTVSSNYMSWVRQAPGKGLEWVSVIYSGGSTYYADSVKGRFTISRDNSKNTLYLQMNSLRAEDTAVYYCARGNPYYYGDLQVNFDYWGQGTLVTVSS
VL: QAVVTQEPSLTVSPGGTVTLTCASSTGAVTSGYYPNWFQQKPGQAPRALIYSTSNKHSWTPARFSGSLLGGKAALTLSGVQPEDEAEYYCLLYYGGAWVFGGGTKLTVL
notes: human IgG1 format; also called B2
B4: the Kd in experiment [12] was 100 to 250 nM. Moreover, the EC50 in experiment [5] is 10 to 50 nM; in experiment [13] it was above 50 nM. Besides, the “% binding (FACS heat-map)” value stood at 80.1% in experiment [7], 70.7% in experiment [8], 8.68% in experiment [9] and 2.77% in experiment [10]. Also, the EC50 (read off the curve) – broadly, the concentration needed to bring the measured effect to its halfway point – in experiment [14] was around 0.01 nM. Moreover, the “IC50 (read off the curve)” value in experiment [15] lay in the range of 4 to 5 nM.

B5: A-012 (IgG1 format) (antibody, V domains shown)
VH: EVQLLESGGGLIQPGGSLRLSCAVSGFTVSSNYMSWVRQAPGKGLEWVSVIYSGGSTYYADSVKGRFTISRDNSKNTLYLQMNSLRAEDTAVYYCARGNPYYYGDLQVNFDYWGQGTLVTVSS
VL: QAVVTQEPSLTVSPGGTVTLTCASSTGAVTSGYYPNWFQQKPGQAPRALIYSTSNKHSWTPARFSGSLLGGKAALTLSGVQPEDEAEYYCLLYYGGAWVFGGGTKLTVL
notes: human IgG1 format
As to B5, the Kd in [1] is 1 to 10 nM; in experiment [2] it was 250 to 500 nM. The EC50 in experiment [5] was 10 to 50 nM; in experiment [13], 10 to 50 nM; in experiment [16], 0.02 to 0.05 nM. The “% binding (FACS heat-map)” value in experiment [7] came to 75.8%; in experiment [8], 65.4%; in experiment [9] it was 4.77%; in [10], 2.35%. For the same molecule, the “EC50 (read off the curve)” value in experiment [17] is around 0.008 nM. Further, in experiment [18], the “IC50 (read off the curve)” value is around 2 nM.

B6: B-003 (chain-swapped IgG1) (antibody, V domains shown)
VH: EVQLLESGGGLIQPGGSLRLSCAVSGFTVSSNYMSWVRQAPGKGLEWVSVIYSGGSTYYADSVKGRFTISRDNSKNTLYLQMNSLRAEDTAVYYCARGNPYYYGDLQVNFDYWGQGTLVTVSS
VL: QAVVTQEPSLTVSPGETVTLTCASSTGAVTSGYYPNWFQQRPGQAPRALIYSTSNKDSWTPARFSGSLLGGKAALTLSGVQPEDEAEYYCLLYYGGAWVFGGGTKLTVL
notes: human IgG1 format; also called B3
Consider B6, for which the “EC50 (read off the curve)” value in [17] was around 0.008 nM. Further, the “IC50 (read off the curve)” value in experiment [18] was around 2 nM.

B7: B-005 (chain-swapped IgG1) (antibody, V domains shown)
VH: EVQLLESGGGLIQPGGSLRLSCAVSGFTVSSNYMSWVRQAPGKGLEWVSVIYSGGSTYYADSVKGRFTISRDNSKNTLYLQMNSLRAEDTAVYYCARGNPYYYGDLQVNFDYWGQGTLVTVSS
VL: QAVVTQEPSLTVSPGGTVTPTCGSSTGAVTSGNLPNWFQQKPGQAPRALIYSTSNKHSWTPARISGSLLGGKAALTLSGVQPEDEAEYYCLLYYGGAWVFGGGTKLTVL
notes: human IgG1 format; also called B5
As to B7, the “EC50 (read off the curve)” value in experiment [17] was around 0.01 nM. Besides, the “IC50 (read off the curve)” value in experiment [18] was around 2 nM.

B8: A-026 (IgG1 format) (antibody, V domains shown)
VH: QVQLQESGPGLVKPSQTLSLTCTVSGGSISSGGYYWSWIRQHPGKGLEWIGYIYYSGSTYYNPSLKSRVTISVDTSKNQFSLKLSSVTAADTAVYYCASWSLGTSNHGWFDPWGQGTLVTVSS
VL: QSVLTQPPSASGTPGQRVTISCSGSSSNIGSNTVNWYQQLPGTAPKLLISDNNNRPSGVPDRFSGSKSGTSASLAITGLQAEDEADYYCQSYDSNLSGWVFGGGTKLTVL
notes: human IgG1 format
Take B8: the Kd is 20 to 30 nM in experiment [1] and above 500 nM in experiment [2]. For the same molecule, the EC50 in [3] is 1 to 20 nM; in [4] it was 1 to 20 nM; in experiment [5], above 50 nM; in [16], 0.02 to 0.05 nM. Moreover, the “% binding (FACS heat-map)” value in experiment [7] turned out to be 64.4%; in [8], 11.6%; in [9], 3.81%; in experiment [10] it was 2.01%.
